Experimental data from US11819553B2, “Glypican 3 antibodies and conjugates thereof” (Seagen Inc., priority 2018, dated 2023).

Molecular target: T1, hGPC3 (Homo sapiens, UniProt P51654)
T1 construct: endogenous in cells
Assay: Competition binding assay on GPC3-positive cells (flow cytometry, AlexaFluor-488 labeled mGPC3-1)
Details: Table 6; competition with labeled mGPC3-1 on GPC3-positive cells; read-out: hGPC3 Binding of hGPC3-1 Antibody Variants EC50
Description: One hundred thousand GPC3-positive cells were transferred to 96-well plates and incubated for 1 hour on ice with 3-5 nM AlexaFluor-488 labeled mGPC3-1 and increasing concentrations (from 10 pM to 2 uM) of unlabeled humanized or murine GPC3-1 mAb. Cells were centrifuged, washed 3 times with PBS, and resuspended in 125 μL of a PBS+2% FBS solution. Fluorescence was analyzed using a flow cytometer, and the percent of saturated fluorescent signal was used to determine percent labeled GPC3-1 mAb bound. The EC50 was extrapolated by fitting the data to a sigmoidal dose-response curve with variable slope.

T1 sequence (P51654 25-554): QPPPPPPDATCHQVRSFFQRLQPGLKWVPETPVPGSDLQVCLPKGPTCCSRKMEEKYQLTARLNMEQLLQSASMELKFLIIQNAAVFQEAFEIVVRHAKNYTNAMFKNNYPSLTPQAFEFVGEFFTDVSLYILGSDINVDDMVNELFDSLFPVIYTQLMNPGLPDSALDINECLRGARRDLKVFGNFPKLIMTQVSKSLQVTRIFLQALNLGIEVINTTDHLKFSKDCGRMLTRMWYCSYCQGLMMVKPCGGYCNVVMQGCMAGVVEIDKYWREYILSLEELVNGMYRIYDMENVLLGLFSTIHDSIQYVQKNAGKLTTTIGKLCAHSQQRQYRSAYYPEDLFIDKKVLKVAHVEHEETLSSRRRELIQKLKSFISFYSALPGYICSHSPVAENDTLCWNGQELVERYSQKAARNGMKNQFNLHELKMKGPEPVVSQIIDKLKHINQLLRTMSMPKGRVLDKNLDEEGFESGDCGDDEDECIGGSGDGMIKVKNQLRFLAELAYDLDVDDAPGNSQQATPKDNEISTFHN

- EC50: > 300 nM
B1: hGPC3-1 HALA: humanized GPC3-1 antibody with heavy chain variable region vHA and light chain variable region vLA (antibody, V domains shown)
VH: QVQLVQSGAEVKKPGASVKVSCKASGYTFTDYEMHWVRQAPGQGLEWIGGIDPETGGTAYNQKFKGRATLTADTSTSTAYMELRSLRSDDTAVYYCARYYSFAYWGQGTLVTVSS
VL: DVVMTQSPLSLPVTLGQPASISCRSSQSIVHSNGNTYLQWFQQRPGQSPRRLIYKVSNRFSGVPDRFSGSGSGTDFTLKISRVEAEDVGVYYCFQVSHVPYTFGQGTKLEIK
